# Test results reported in patent US20050049403A1 (CAMBRIDGE ANTIBODY TECHNOLOGY, published 2005).
# B1: 6H1 IgG4 (antibody, V domains shown)
# VH: EVQLVESGGGVVQPGRSLRLSCAASGFTFSSYGMHWVRQAPGKGLEWVAVIWYDGSNKYYADSVKGRFTISRDNSKNTLYLQMDSLRAEDTAVYYCGRTLESSLWGQGTLVTVSS
# VL: DVVMTQSPSSLSASVGDRVTITCRASQGISNYLAWYQQKPGKAPKLLIYKASTLESGVPSRFSGSGSGTEFTLTISSLQPEDFATYYCQQSYSTPRTFGQGTKVDIKR
# notes: Whole antibody: human gamma 4 and human kappa constant regions (pG4D100, pKN100), CHO cells
# B2: 6A5 IgG4 (antibody, V domains shown)
# VH: B1 VH
# VL: SSELTQDPAVSVALGQTVRITCQGDSLRSYYASWYQQKPGQAPVLVIYGKNNRPSGIPDRFAGSNSGNTASLTITGAQAEDEADYYCSSRDSSGNHVVFGGGTKLTVLG
# notes: Whole antibody: human gamma 4 and human lambda constant regions (pG4D100, pLN10), CHO cells
# B3: 27C1/10A6 IgG4 (antibody, V domains shown)
# VH: QVQLVESGGGVVQPGRSLRLSCAASGLTFSSYDMHWVRQPPAKGLEWVAVISYDGSSKYYADSVKGRFTISRDNSKNTLYLQMNSLRAEDTAVYYCARTGEYSGYDTSGVELWGQGTTVTVSS
# VL: HVILTQDPAVSVALGQTVRITCQGDSLKSYYASWYQQKPGQAPVLVIYGENSRPSGIPDRFSGSSSGNTASLTITGAQAEDEADYYCNSRDSSGTHLEVFGGGTKLTVLG
# notes: Whole antibody: human gamma 4 constant region (pG4D100) and human lambda constant region (pLN10), made in CHO cells
# B4: 10A6 scFv (scFv)
# scFv: QVQLVESGGGVVQPGRSLRLSCAASGFTFSSYGMHWVRQAPGKGLEWVAVISYDGSNKYYADSVKGRFTISRDNSKNTLYLQMNSLRAEDTAVYYCAKTGEYSGYDSSGVDVWGKGTTVTVSSGGGGSGGGGSGGGGSHVILTQDPAVSVALGQTVRITCQGDSLKSYYASWYQQKPGQAPVLVIYGENSRPSGIPDRFSGSSSGNTASLTITGAQAEDEADYYCNSRDSSGTHLEVFGGGTKLTVLG
# notes: Light chain shuffle of 1-B2
# Key:
# recombinant human TGFβ2 [1] = target: T1, recombinant human TGFβ2 (human, UniProt P61812 303-414); test: cell-based or functional assay
# T1 sequence (looked up): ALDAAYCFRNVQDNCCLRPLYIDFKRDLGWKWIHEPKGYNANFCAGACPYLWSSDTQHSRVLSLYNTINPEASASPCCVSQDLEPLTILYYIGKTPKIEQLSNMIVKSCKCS
# TGFβ3 [2] = target: T2, TGFβ3 (UniProt P10600 301-412); test: cell-based or functional assay
# T2 sequence (looked up): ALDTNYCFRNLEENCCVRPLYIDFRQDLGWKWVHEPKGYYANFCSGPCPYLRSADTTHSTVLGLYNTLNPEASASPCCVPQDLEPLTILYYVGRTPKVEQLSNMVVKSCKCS
# recombinant human TGFβ2 [3] = target: T1, recombinant human TGFβ2; test: cell-based or functional assay; remark: listed apart in the source
# recombinant human TGFβ2 [4] = target: T1, recombinant human TGFβ2; test: BIACore, method of Karlsson et al.
# recombinant human TGFβ1 [5] = target: T3, recombinant human TGFβ1 (human, UniProt P01137 279-390); test: BIACore, antigen coated on the sensor chip
# T3 construct: mature; also called TGFbeta1
# T3 sequence (P01137 279-390 limits assumed): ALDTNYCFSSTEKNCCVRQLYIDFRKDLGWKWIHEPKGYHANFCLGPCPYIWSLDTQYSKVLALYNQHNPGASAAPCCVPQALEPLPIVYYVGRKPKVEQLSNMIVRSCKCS
# TGFβ3 [6] = target: T2, TGFβ3; test: BIACore, antigen coated on the sensor chip
# recombinant human TGFβ2 [7] = target: T1, recombinant human TGFβ2; test: radioreceptor assay, inhibition of 125I-TGFβ2 binding to A549 cells; concentration of antibody combining sites
# Procedure: (§1) Cells are seeded at 1-2×10^5 cells/ml/well into the wells of 24-well cluster plates and grown for 24 h in serum-free DMEM. Cell monlayers are washed twice with serum-free DMEM and 0.5 ml binding medium (DMEM/Hams F12 (Sigma D-6421) containing 0.1% (v/v) BSA added to each well.
# (§2) Aliqouts of ¹²⁵I-TGFβ1 or TGFβ2 (70-90 TBq/mmol; Amersham International) at 20 pM are preincubated with antibody in binding medium at room temperature for 1 h. Duplicate samples of 0.5 ml of TGFβ/antibody mixtures are then added to the cell monlayers and are incubated at 37° C. for 1-2 h. Control wells contain TGFβ only. Unbound TGFβ is removed by washing 4 times with Hank's balanced salt solution containing 0.1% BSA. Cells are solubilised in 0.8 ml 25 mM Tris HCl pH 7.5, 10% glycerol, 1% Triton X-100 at room temperature for 20 min. The contents of each well are removed and ¹²⁵I measured in a gamma counter.
# human lymphotoxin (TNFβ) = target: T4, human lymphotoxin (TNFβ) (human, UniProt P01374 35-205, limits assumed); test: ELISA, antigen coated at 10 µg/ml, anti-human Fc alkaline phosphatase conjugate, OD405 nm [b]
# T4 sequence (looked up): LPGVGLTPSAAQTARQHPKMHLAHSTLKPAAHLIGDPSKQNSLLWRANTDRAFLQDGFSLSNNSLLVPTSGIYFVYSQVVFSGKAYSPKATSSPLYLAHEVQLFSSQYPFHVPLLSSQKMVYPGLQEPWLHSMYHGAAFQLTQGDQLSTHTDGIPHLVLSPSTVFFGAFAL
# Procedure: (§3) For both FIG. 13(a) and FIG. 13(b), antigens 1 to 15 were used for coating the plate at a concentration of 10 μg/ml in PBS. The TGFbetas were coated at 0.2 μg/ml in PBS. Coating was performed at 4° C. overnight. […] of each antigen was used per well and duplicates of each antigen for each IgG to be tested. IgG samples were incubated with the coated antigens at 37° C. for 2 hours after blocking with 2%. marvel-PBS. The labelled second antibody was a mouse anti-human Fc1 alkaline phosphatase conjugated and the substrate used to detect bound second antibody was PNPP at 1 mg/ml with the absorbance read at 405 nm.
# human insulin = human insulin (human, UniProt P01308 25-54; P01308 90-110, limits assumed); test: as above
# Chain of human insulin (P01308 25-54 limits assumed, chain 1 of 2): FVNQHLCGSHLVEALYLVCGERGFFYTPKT
# Chain of human insulin (P01308 90-110 limits assumed, chain 2 of 2): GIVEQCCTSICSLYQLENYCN
# Procedure: as §3
# human serum albumin = human serum albumin (human, UniProt P02768 25-609); test: as above
# Chain of human serum albumin (P02768 25-609 limits assumed): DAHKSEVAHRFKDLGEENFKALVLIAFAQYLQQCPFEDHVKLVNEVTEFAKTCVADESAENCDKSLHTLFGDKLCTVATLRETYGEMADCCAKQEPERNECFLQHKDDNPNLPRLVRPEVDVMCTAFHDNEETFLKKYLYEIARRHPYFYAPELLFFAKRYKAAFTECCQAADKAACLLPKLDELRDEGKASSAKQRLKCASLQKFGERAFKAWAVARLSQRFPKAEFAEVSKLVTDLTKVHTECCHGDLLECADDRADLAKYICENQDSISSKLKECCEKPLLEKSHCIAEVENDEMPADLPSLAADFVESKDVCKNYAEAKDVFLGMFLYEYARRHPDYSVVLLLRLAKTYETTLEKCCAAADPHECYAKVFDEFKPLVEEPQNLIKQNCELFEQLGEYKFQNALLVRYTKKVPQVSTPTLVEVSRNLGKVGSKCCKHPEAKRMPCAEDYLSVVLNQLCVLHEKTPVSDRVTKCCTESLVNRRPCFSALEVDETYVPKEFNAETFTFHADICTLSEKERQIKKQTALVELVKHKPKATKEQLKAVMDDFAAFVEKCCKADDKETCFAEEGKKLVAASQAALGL
# Procedure: as §3
# [8] = target: oxazolone-bovine serum albumin (bovine, UniProt P02769 25-607, oxazolone hapten coupled, sites not stated); test: as above
# Chain of oxazolone-bovine serum albumin (P02769 25-607 limits assumed): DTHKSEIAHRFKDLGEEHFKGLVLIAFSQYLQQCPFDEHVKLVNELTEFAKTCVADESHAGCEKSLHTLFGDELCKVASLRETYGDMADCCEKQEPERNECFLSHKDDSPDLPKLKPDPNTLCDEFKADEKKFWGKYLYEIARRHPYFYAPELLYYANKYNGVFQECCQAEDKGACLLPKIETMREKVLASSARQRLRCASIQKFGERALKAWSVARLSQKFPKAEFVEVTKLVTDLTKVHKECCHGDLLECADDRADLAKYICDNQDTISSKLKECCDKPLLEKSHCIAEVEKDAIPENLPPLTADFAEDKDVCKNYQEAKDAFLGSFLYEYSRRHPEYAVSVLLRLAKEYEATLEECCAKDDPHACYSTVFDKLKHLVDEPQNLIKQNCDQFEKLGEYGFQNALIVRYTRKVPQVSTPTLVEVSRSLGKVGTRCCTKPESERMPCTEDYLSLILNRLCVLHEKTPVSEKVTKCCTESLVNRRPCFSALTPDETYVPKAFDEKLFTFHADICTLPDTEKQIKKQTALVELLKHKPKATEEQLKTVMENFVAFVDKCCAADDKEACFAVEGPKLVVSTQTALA
# Procedure: as §3
# [9] = target: T5, chicken egg white trypsin inhibitor (chicken, UniProt P01005 25-210); test: as above
# T5 sequence (looked up): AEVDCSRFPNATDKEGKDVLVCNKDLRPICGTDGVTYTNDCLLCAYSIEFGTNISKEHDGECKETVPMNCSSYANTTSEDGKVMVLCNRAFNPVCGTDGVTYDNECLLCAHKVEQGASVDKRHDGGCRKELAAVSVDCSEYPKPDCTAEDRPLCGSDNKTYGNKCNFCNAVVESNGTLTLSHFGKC
# Procedure: as §3
# ovalbumin = target: T6, ovalbumin (UniProt P01012 2-386); test: as above
# T6 sequence (looked up): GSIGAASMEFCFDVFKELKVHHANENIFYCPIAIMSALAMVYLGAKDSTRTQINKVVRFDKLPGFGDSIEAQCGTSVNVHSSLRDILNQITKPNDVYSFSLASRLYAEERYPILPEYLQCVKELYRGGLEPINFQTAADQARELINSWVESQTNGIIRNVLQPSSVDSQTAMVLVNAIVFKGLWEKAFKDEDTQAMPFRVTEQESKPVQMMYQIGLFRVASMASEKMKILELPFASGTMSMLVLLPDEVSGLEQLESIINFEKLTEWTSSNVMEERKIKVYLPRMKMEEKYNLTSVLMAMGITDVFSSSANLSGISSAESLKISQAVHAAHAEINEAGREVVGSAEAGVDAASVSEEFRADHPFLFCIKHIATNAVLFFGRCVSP
# Procedure: as §3
# hen egg lysozyme = hen egg lysozyme (hen, UniProt P00698 19-147); test: as above
# Chain of hen egg lysozyme (P00698 19-147): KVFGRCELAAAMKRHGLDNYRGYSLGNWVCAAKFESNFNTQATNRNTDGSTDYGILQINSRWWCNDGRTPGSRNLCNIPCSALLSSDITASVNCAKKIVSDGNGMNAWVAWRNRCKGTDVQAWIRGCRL
# Procedure: as §3
# bovine serum albumin = target: T7, bovine serum albumin (bovine, UniProt P02769 25-607); test: as above
# T7 construct: also called BSA
# T7 sequence (P02769 25-607 limits assumed): as the sequence (P02769 25-607 limits assumed) above
# Procedure: as §3
# recombinant human TGFβ2 [10] = target: T1, recombinant human TGFβ2; test: BIACore, antigen on the chip
# recombinant human TGFβ1 [11] = target: T3, recombinant human TGFβ1; test: BIACore, method of Karlsson et al.
# [12] = target: lysozyme (coated onto a BIACore sensor chip) (Gallus gallus (Chicken), UniProt P00698 19-147); test: BIACore, lysozyme coated on the sensor chip
# Chain of lysozyme (coated onto a BIACore sensor chip) (P00698 19-147 limits assumed): as the sequence (P00698 19-147) above
# recombinant human TGFβ1 [13] = target: T3, recombinant human TGFβ1; test: radioreceptor assay, inhibition of 125I-TGFβ1 binding to A549 cells; concentration of antibody combining sites
# Procedure: as §1, §2
# recombinant human TGFβ1 [14] = target: T3, recombinant human TGFβ1; test: specificity ELISA, TGFβ coated at 0.2 µg/ml
# Procedure: Clones identified as binding TGFβ-1 rather an uncoated well, as described above, were further analysed for fine specificity. […] Microtitre plate wells were coated with 50 μl of either 0.2 μg/ml TGFβ1, 0.2 μg/ml TGFβ-2, 10 μg/ml bovine serum albumin (BSA) or PBS (the uncoated well). After preblocking both the phage (or soluble scFv) and the microtitre plates, 50 μl blocked phage (or soluble scFv) from each clone was added to a well coated with either TGFβ-1, TGFβ-2, BSA or an uncoated well. As above, alkaline phosphatse activity was visualised using either the chromagenic substrate pNPP (Sigma) or the Ampak system (Dako). […]
binder,measurement,setting,value
B1,"IC50 in TF1 cell proliferation assay, 100 pM TGFβ isoform",recombinant human TGFβ2 [1],12 nM
same,"IC50 in TF1 neutralisation assay, 6H1 IgG4 from a CHO cell line",recombinant human TGFβ2 [1],15 nM
same,"IC50 in TF1 cell proliferation assay, 100 pM TGFβ isoform",TGFβ3 [2],~20 nM
same,I.C.50 in TF1 assay (neutralisation of TGFβ2 inhibition of TF1 cell proliferation),recombinant human TGFβ2 [3],100 nM
same,Kd,recombinant human TGFβ2 [4],~2 nM
same,binding result,recombinant human TGFβ1 [5],no binding
same,binding result,TGFβ3 [6],no binding
same,IC50,recombinant human TGFβ2 [7],~10 nM
B2,I.C.50 in TF1 assay (neutralisation of TGFβ2 inhibition of TF1 cell proliferation),recombinant human TGFβ2 [3],150 nM
same,binding result,human lymphotoxin (TNFβ),no binding
same,binding result,human insulin,no binding
same,binding result,human serum albumin,no binding
same,binding result,[8],no binding
same,binding result,[9],no binding
same,binding result,ovalbumin,no binding
same,binding result,hen egg lysozyme,no binding
same,binding result,bovine serum albumin,no binding
same,IC50,recombinant human TGFβ2 [7],~6 nM
B3,fold higher dissociation constant compared to TGFβ1,recombinant human TGFβ2 [10],≥ 10 fold
same,Kd,recombinant human TGFβ1 [11],~5 nM
same,binding result,[12],no binding
same,IC50,recombinant human TGFβ1 [13],9 nM
B4,"ELISA signal, fold over the signal on TGFβ2 and TGFβ3",recombinant human TGFβ1 [14],≥ 5 fold
